Consider three molecules from article PMC6424980, “Distinct G protein-coupled receptor phosphorylation motifs modulate arrestin affinity and activation and global conformation” (Nature Communications, 2019).

In experiment [1] the target is fully phosphorylated peptide 7P of the bovine rhodopsin C-terminus (bovine). In words: fluorescence polarisation; fluorescence anisotropy; 20 nM fluorescently labelled peptide, 11-step serial dilution of arrestin; 20 mM Bis-Tris propane pH 7.0, 150 mM NaCl, 8 mM 2-mercaptoethanol, 2% BSA, 0.02% Tween-20; RT; one-to-one binding model. In general terms: Fluorescence polarisation rises when a labelled molecule tumbles more slowly, as on binding a larger partner.

The subject of the next experiment is arrestin-1 (F85A, F197A). In words: Limited trypsin digestion of arrestin-1 in presence of peptide. The format is biochemical, bovine. The conditions noted are these: arrestin:peptide 1:1.2, 35 °C, SDS PAGE. From the text: Synthesized cDNAs of bovine arrestin-1, human arrestin-2 and human arrestin-3 were ordered from Genewiz, amplified by PCR and cloned (Supplementary Information Table 5) into the pET-15b vector (Novagen), using the Gibson Assembly protocol. The constructs contained an N-terminal hexa histidine tag linked by a linker that contained a Tobacco Etch Virus cleavage site (TEV; […]). PCR was used to introduce the monomerizing arrestin-1 mutations (F85A, F197A)[58]. Note that this mutant was employed for fluorescence anisotropy, trypsin digestion, and NMR experiments. Wild-type arrestin-2 and -3 were used for fluorescence anisotropy and trypsin digestion experiments. […] The arrestin-1 in this construct had the wild-type sequence. Note that this construct differs slightly from that previously published[59],[60] and was optimized for purification. We verified the functionality of this fusion construct using the standard centrifugal pull-down assay using phosphorylated rhodopsin in native ROS membranes.
Arrestin (60 µg) was mixed at a 1 to 1.2 molar ratio with peptide and preincubated at RT for 5 min before 1 μl of 0.15 mg/ml trypsin stock was added. The enzymatic digestion was carried out at 35 °C (20 mM Bis-Tris propane pH 7.0, 150 mM NaCl, 10 mM 2‑Mercaptoethanol and 2 mM EDTA). At certain time points (5, 15, 30, 60, 90 min), 5 μl aliquots were quenched with heat incubation in the presence of 20 μl SDS loading buffer (95 °C, 5 min) and then subjected to SDS PAGE. Bands were visualized with InstantBlue (Expedeon).

The test system of another experiment is arrestin-1. In words: [15N,1H]TROSY NMR titration of arrestin-1 with peptide. Conditions: peptide:arrestin-1 up to 10:1. The format is binding, bovine. The procedure: ^2H,^15N,^13C-labeled arrestin-1 aliquots were thawed quickly under running water, transferred to 30 kDa-cutoff Vivaspin (0.5 ml, Sartorius) centrifugal spin concentrators, and concentrated to approximately 600 μM. The concentrator was immediately transferred into a beaker filled with 400 ml of NMR buffer 1 or 2 (see below) carried by a floatation device. The dialysis was performed at 4 °C overnight. On the next day the concentration was determined by UV absorbance at 280 nm (molar extinction coefficient 26,360/mol/cm). […] The dialysis was performed at 4 °C overnight, and the peptide concentration was determined by its absorbance at 205 nm (molar extinction coefficient: 54,310/mol/cm). […]
NMR measurements were performed on Bruker Avance III-HD 600 or 900 MHz spectrometer using a CTCI cryo-cooled probehead. […] Pulse lengths were calibrated for ^1H manually and for ^13C/^15N using an in-house automated procedure. pH was monitored using the position of the phosphate signal in NMR buffer 2 as an internal reference and varied by no more than 0.03 pH units during peptide titration experiments. [^15N,^1H]TROSY experiments were recorded with internal ETH pulse sequences, whereas 3D triple resonance TROSY experiments were recorded using the manufacturer’s pulse sequences. […]

For experiment [2], the target named is bovine arrestin-1 with the monomerizing mutations F85A, F197A (bovine, UniProt P08168 2-404, F85A | F197A). In words: FP.

Non-standard residues stand in square brackets, D forms with d. No end group written: not given here. pT = C[C@@H](OP(=O)(O)O)[C@H](N)C(=O)O; pS = N[C@@H](COP(=O)(O)O)C(=O)O

“bovine arrestin-1 with the monomerizing mutations F85A, F197A (from UniProt P08168 2-404) (natural protein)”: the Kd in experiment [1] is < 250 µM.
With “CDDEASTTVSKTETSQVAPA [0P, nonphosphorylated peptide analog of the bovine rhodopsin C-terminus with N-terminal cysteine]”, in the experiment on arrestin-1 (F85A, F197A), the “limited trypsin digest pattern of arrestin-1 (conformational change, C-tail displacement)” value is reported as “three major bands”. Also, in the experiment on arrestin-1, the “NMR chemical shift / peak changes in arrestin-1 (in words)” value is reported as “some minor changes in peak intensity”.
In experiment [2], C(fluorescein‑5‑maleimide)DDEASTTVSK[pT]ET[pS]QVAPA (also: third phosphorylation site not given here) [tri-phosphorylated peptide 3Pd of the bovine rhodopsin C-terminus] registered a dissociation constant (Kd) of 94 µM.

A word on the Kd: it is the concentration at which binding is half-saturated. Low values mean a tighter complex, high ones a looser complex.
